# Results from publication PMC10720262 (Cell Reports, 2023).
# Experiments:
# [1] = biological target: recombinant full-length PfCSP (Plasmodium falciparum circumsporozoite protein, strain NF54) (Plasmodium falciparum NF54, UniProt P19597); assay: cell-based or functional assay
# NANP6 peptide = biological target: T1, NANP6 peptide (Plasmodium falciparum NF54); assay: SPR; Carterra LSA; mAb amine-coupled to a CMD200M chip, peptide titrated in 2-fold steps up to 8 ug/mL without regeneration; 25 C; HBSTE (10 mM HEPES pH 7.4, 150 mM NaCl, 3 mM EDTA, 0.01% Tween 20); 1:1 Langmuir model; mean of triplicates; KD includes avidity for antigens with several repeats; details: both partners purified
# T1 construct: source: synthetic peptide (CPC Scientific)
# [2] = biological target: T2, recombinant full-length PfCSP (strain NF54) (Plasmodium falciparum NF54, UniProt P19597); assay: BLI; Octet RED96; His-tagged PfCSP on Ni-NTA biosensors, 2-fold dilutions of mAb; PBS pH 7.4, 0.01% BSA, 0.002% Tween 20; 1:1 binding model; details: both partners purified
# T2 construct: also called NF54 PfCSP; Pf circumsporozoite protein; not shown: His tag, C-terminal, kept
# T2 sequence (P19597 20-375): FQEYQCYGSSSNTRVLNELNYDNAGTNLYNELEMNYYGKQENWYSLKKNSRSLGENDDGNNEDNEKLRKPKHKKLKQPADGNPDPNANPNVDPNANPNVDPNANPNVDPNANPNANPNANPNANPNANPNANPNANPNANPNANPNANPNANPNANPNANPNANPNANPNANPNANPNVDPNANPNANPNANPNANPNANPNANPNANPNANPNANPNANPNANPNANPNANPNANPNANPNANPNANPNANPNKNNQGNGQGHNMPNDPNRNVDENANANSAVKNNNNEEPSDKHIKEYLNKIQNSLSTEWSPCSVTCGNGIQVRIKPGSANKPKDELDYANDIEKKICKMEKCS
# Sequence of recombinant full-length PfCSP (Plasmodium falciparum circumsporozoite protein, strain NF54) (P19597 20-375): as above
binder,measurement,setting,value
"mAb Ky311 (human IgG1) (antibody, V domains shown) VH: QMHLVESGGGVVQPGRSLRLSCVASGFTFNNHGMHWVRQAPGKGLEWVAVIWHDGSNKFYADSVNGRFIVSRDNSKNTLYLHMNSLRAEDTAVYYCARDFFVSGSYNYFDPWGQGTLVTVSS VL: EIVLTQSPVTLSLSPGERATLSCRASQSVSNYLAWYQQKPGQAPRLLIYDAANRATGTPARFSGSGSGTDFTLTISSLEPEDFAVYFCQQRSKWFTFGPGTKLDIK",other,[1],< 1.5 µg/mL
"mAb CIS43 (antibody, V domains shown, also called CIS4317 (label with citation mark 17)) VH: QVQLVQSGAEVKKPGASVKVSCKASGYTFTSYAIHWVRQAPGQRLEWMGWIKAGNGNTRYSQKFQDRVTITRDTSTTTAYMELSSLRSEDTAVYYCALLTVLTPDDAFDIWGQGTMVTVSS VL: not shown",Kd,NANP6 peptide,54.9 nM
same,koff,NANP6 peptide,0.00974 s⁻¹
same,kon,NANP6 peptide,179000 M⁻¹ s⁻¹
same,kon,[2],444000 M⁻¹ s⁻¹
"mAb Ky315 (human IgG1) (antibody, V domains shown) VH: QVQLVESGGGVVQPGRSLRLSCAASGFTLSNYGVHWVRQAPGTGLEWVALIWYDGSNKFYADSVKGRFTISRDNSMDIVYLQMNNLRAEDTALYYCVRPGIAAAGSNYYAMDVWGQGTAVTVSS VL: EIVMTQSPATLSMSPGERATLSCRASQSVGSDLAWFQQKPGQAPRLLIYGAFTRATGIPARFSGSGSGSEFTLTISSLQSEDFAVYYCQQYNRWWTFGQGTKVEMK",other,[1],< 1.5 µg/mL
"mAb 317 (antibody, V domains shown, also called 31715 (label with citation mark 15)) VH: QMQLVESGGGVVQPGRSLRLSCTASGFTFSTYAMHWVRQSPGQGLQWVAVISYHSTNKYYEDSVRGRFTISRDNSKNTLYLQMNSLRAEDTAVYYCARDGYSSSFFDFWGQGTLVTVSS VL: DIQMTQSPSTLSASVGDRVAITCRASQSISRWLAWYQQQPGKAPKLLMSGASVLESGVPSRFSGSGSGTEFTLTISSLQPDDFATYYCQHYNSYFVTFGQGTKVEIK",Kd,NANP6 peptide,0.404 nM
same,koff,NANP6 peptide,0.000118 s⁻¹
same,kon,NANP6 peptide,292000 M⁻¹ s⁻¹
same,kon,[2],27200 M⁻¹ s⁻¹
"mAb Ky15.2 (human IgG1) (antibody, V domains shown) VH: QVLLVESGGGVVQPGTSLRLSCVASGFSFSTYGMHWVRQSPGKGLEWVAIIWYDGGNKFYADSVQGRFTVSRDNSKNTLYLQMNSLRAEDTAVYYCAKAYRTSLDKKYGMDVWGQGTTVTVSS VL: DIQMTQSPSTLSASVGDRVTITCRASQSIASWLAWYQQKPGKAPKLLIYKASSLESGVPSRFSGSGSGTEFTLTISSLHPDDFATYFCQQFTSYWTFGQGTKVEIK",other,[1],< 1.5 µg/mL
"mAb Ky15.5 (human IgG1) (antibody, V domains shown) VH: QVQMVASGGGVVQPGRSLRLSCAVSGFTFRNFGMHWVRQDPGRGLEWVAIIWYDGSYEFYADSVKGRFTISRDNSKNTLYLQMNSLRAEDTAVYYCARSYGSLTGDETKYGMDVWGQGTTVTVSS VL: DIQMTQSPSTLSASVGDRVTITCRASQSISSWLAWFQQKPGKAPKLLIYKASSLESGVPSRFSGSGSGTEFTLTISSLQPDDFATYYCQQYKNYWTFGQGTKVEIK",other,[1],< 1.5 µg/mL
"mAb 2541 (antibody, V domains shown, also called 254121 (label with citation mark 21)) VH: QVQLVESGGGVVQPGRSLRLSCAASGFTFSSYGMHWVRQTTGKGLEWVAIIWHDGSKKYYADSVKGRLTISRDNSKNTLYLQMNSLRVEDTALYYCARVGDYSDFKYGAFDIWGQGTMVTVSS VL: DIQMTQSPSTLSASVGDRVTITCRASQSISSWLAWYQQKPGKAPNLLIYKASTLESGVPSRFSGSGSGTEFTLTISSLQPDDFATYYCQQYNSYWTFGQGTRVEIK",Kd,NANP6 peptide,≤ 0.133 nM
same,koff,NANP6 peptide,≤ 1e-05 s⁻¹
same,kon,NANP6 peptide,86600 M⁻¹ s⁻¹
same,kon,[2],71000 M⁻¹ s⁻¹
"mAb Ky15.7 (human IgG1) (antibody, V domains shown) VH: QVQVVESGGGAVQPGRSLRLSCAASGFTFSNRGMHWVRQTPGKGLEWVAIIWYDGGNKFYADSVKGRFTISRDNSKNTLYLQMNSLRDEDTAVYYCVRAGDWKADKYTMDVWGQGTTVTVSS VL: DIQMTQSPSTLSASVGDRVTITCRASQSISSWLAWYQQKPGKAPKVLIYQASSLESGVPSRFSGSGSGTEFTLTISSLQPDDFATYYCQQYNSYWTFGQGTKVEIK",other,[1],< 1.5 µg/mL
"mAb Ky15.11 (human IgG1) (antibody, V domains shown) VH: QVQLVESGGGVVQPGRSLRLSCEASGFTFSNFGMHWVRQTPVKGLEWVAIIWFDGSYKYYTDSVKGRFTISRDNSKNTLYLQMNSLRAEDTAVYYCARARKGQRSDYYGSETSYTFDNWGQGTLVTVSS VL: DIQMTQSPSTLSASVGDRVTITCRASQSINGWLAWYQQKPGKAPKFLIYKASILESGIPSRFSGSGSGTEFTLTISSLQPDDFATYYCQQYSSYWTFGQGTKVEIK",other,[1],< 1.5 µg/mL
"mAb Ky15.10 (human IgG1) (antibody, V domains shown) VH: QVQLVESGGGVVQPGRSLRLSCAASGFTFSNSGMHWVRQVPGKGLEWVAIIWYDGSNKYYADSVKGRFSVSRDNSENTLYLQMSNLRAEDTAVYYCVRAYFDSENLYDYYGMDVWGQGTTVTVSS VL: DIQMTQSPSTLSASVGDRVTITCRASQSISRWLAWFQKKPGKAPKLLIYTASNLESGVPSRFSGSGSGTEFTLTISSLQPDDFATYYCQQYYNYWTFGQGTKVEVK",other,[1],< 1.5 µg/mL
"mAb Ky15.8 (human IgG1) (antibody, V domains shown) VH: QVQLVESGGNVVQPGRSLRLSCTASGFTFSSYGMHWVRQAPDKGLEWVAIIWYDGGNKFYADSVKGRFTISRDNSKDTLYLQMNSLRAEDTAVYYCAKAWYKIDDKYSMDVWGQGTTVTVSS VL: not shown",other,[1],< 1.5 µg/mL
"mAb Ky230 (human IgG1) (antibody, V domains shown) VH: QVQLVESGGGVVQPGRSLRLSCAASGFTFSDYGMHWVRQAPGKGLEWVAIIWHDGSNKYYVDSVKGRFTISRDNSKNTLYLQMNSLRAEDTAVYYCARAASSFGSGFDYWGQGTLVTVSS VL: DVVMTQSPLSLPVTLGQPASIFCRSSQSLVYSDGNTYLNWFQRRPGQSPRRLIYKVSDRDSGVPDRFSGSGSGTDFTLQISRVEAEDVGVYYCMQGTHWPPTFGQGTKVEIK",other,[1],< 1.5 µg/mL
"mAb Ky224 (human IgG1) (antibody, V domains shown) VH: QVQLVESGGGVVQPGRSLRLSCAASGFTFSVYGMHWVRQAPGKGLEWVAVIWYDGSNKIYADSVKGRFTISRDNSKNTLYLQMDSLSAADTAVYYCAKIGSSSFDYWGQGTLVIVSS VL: DIVMTQTPLSSPVTLGQPASISCRSSQSLVHSNGITYLSWLQQRPGQPPRLLLYEISNRFSGVPDRFSGSGTGTDFTLKISRVEAEDVGVYYCMQTTQFPITFGQGTRLEIK",other,[1],< 1.5 µg/mL
"mAb Ky15.3 (human IgG1) (antibody, V domains shown) VH: QVQLVESGGGVVQPGRSLRLSCVASGFTFSNAGMHWVRQTPGKGLEWVAIIWYDGSIKYYGESVKGRFTISRDNSKNTLYLEMSSLRAEDTAVYFCVRAYSGSLYDKYGMDVWGQGTTVIVSS VL: DIQMTQSPSTLSASVGDRVTISCRASQTISTWLAWFQQKPGKAPKLLIYAASSLQSGVPSRFSGSGSGTDFTLTISNLQPDDFATYYCQQFNSYWTFGQGTKVEIK",other,[1],< 1.5 µg/mL
